Like-named read-outs stand apart in the source and are kept apart here.
Assays:
[1] = test system: HHH peptide (biotinylated histidine trimer) (synthetic)
[2] = test system: HHH peptide (biotinylated histidine trimer) (synthetic); conditions: quantum dot multivalent probe

Sequence: CAAGCAGAAGACGGCATACGAGATCATGCTTCCCCAGGGAGATGGTTTGCCGGTGGGCAGGTTTAGGGTCTGCTCGGGATTGCGGAGGAACATGCGTCGCAAACGTGTAGATCTCGGTGGTCGCCGTATCATT [P7-B1-P5 aptamer]
- EC50 ([1]; single aptamer on SureLight APC): 2.3 nM
- EC50 ([1]; single aptamer on streptavidin-APC): 29.9 nM
- EC50 ([1]; single aptamer on streptavidin-Alexa Fluor 647): 28 nM
- EC50 [2]: 60 nM

Source: US20220162684
